Measurements taken from patent publication US12275759B2, “Hepatitis B virus replication inhibitor and pharmaceutical composition for treating hepatitis B comprising the same” (RIKEN, priority 2018, dated 2025).
Changes are numbered by the printed parent chain. In names and notes the source's numbering stands.

Columns and labels:
Format in all cases: cell-based, hepatitis B virus
[1] = test system: HBV replication; assay: system for evaluating HBV replication activity (reporter (−) DNA quantitative PCR) in HeLa cells, with wild type HBc; conditions: GLS4 0.08 to 5 μM, HBc-WT in the system; FIG. 13
[2] = test system: HBV replication by HBc-T33N; assay: system for evaluating HBV replication activity in HeLa cells with HBc-T33N in place of HBc-WT; conditions: GLS4 0.08 to 5 μM, FIG. 13
Method: The T residue at position 33 was substituted with an N residue (denoted as T33N) by a site-directed mutagenesis method using PrimeSTAR Mutagenesis Basal Kit (Takara Bio Inc.) using the full length HBc expression vector (pCI-HBc) of genotype C used in Example 1 as the template. The T33N mutant of the full length HBc having introduced the point mutation is denoted as HBc-T33N.
The measurement of the HBV replication activity by HBc-WT or HBc-T33N was performed in accordance with the method described in Example 1 using HBc-WT or HBc-T33N as HBc comprised in the system for evaluating HBV replication described in Example 1 in the presence of GLS4 at a concentration of 0 μM, 0.08 μM, 0.16 μM, 0.31 μM, 0.63 μM, 1.25 μM, 2.5 μM, or 5 μM. Based on the obtained measurement value of HBV replication activity (amount of reverse transcribed HBV DNA), the efficiency for inhibition of HBV replication (%) was calculated.
The evaluation of the inhibitory effect on HBV replication of the spike region ΔHBc(α1-4b) was in accordance with the method described in Example 2. However, in this Example, HBc-WT or HBc-T33N was used as the HBc comprised in the system for evaluating HBV replication described in Example 2.

[3] = test system: HBV replication; assay: system for evaluating HBV replication activity (reporter (−) DNA quantitative PCR) in HeLa cells, with wild type HBc; conditions: for inhibitory effect on HBV replication: pCI-HBc:pCI-ΔHBc = 9:26, 24 hours culture, amount of reporter (−) DNA vs positive control (empty vector), FIG. 7, 9, 11A; for inhibitory activity on HBV replication compared to wild type pCI-ΔHBc(α1-4b): single ratio as in Example 1, FIG. 11A
Excerpt: The effect of each of the aforementioned ΔHBc expression vector (pCI-ΔHBc) on HBV replication was examined using the system for evaluating HBV replication activity described in WO2018/030534 developed by the present inventors.
Specifically, the system for evaluating HBV replication activity consisting of the vector for evaluating HBV replication activity (pBB-intron) encoding the reporter pgRNA shown in FIG. 5A, the HBV-P expression vector (pCI—HBV-Pol) shown in FIG. 5B, the HBc expression vector (pCI-HBc) shown in FIG. 5C, and the HBx expression vector (pCI-HBx) shown in FIG. 5D was introduced into HeLa cells together with each pCI-ΔHBc. The introduction ratio of the respective expression vectors was pBB-intron: pCI-HBc: pCI—HBV-Pol: pCI-HBx: pCI-ΔHBc=13:9:3:1:26. According to this ratio, the amount of ΔHBc is about three times (2.89 times) as much as that of the wild type HBc functioning in HBV replication. As a positive control, an empty vector (pCI) was introduced at the same ratio as pCI-ΔHBc. For gene introduction into HeLa cells, the electroporation method was used. Using an Electroporator Nepa21 (Nepa Gene Co., Ltd.) 10 μg of DNA was introduced into approximately 1×10^6 cells under the condition of 125 V/2.5 ms pulse length. The HeLa cells after gene introduction were cultured in DMEM to which 2 mL of 10% FBS was added in the presence of 5% CO2 at 37° C. for 24 hours.
When the vector for evaluating HBV replication activity (pBB-intron) described above is introduced into HeLa cells, pre-mRNA shown in FIG. 6A is synthesized by RNA-pol II in HeLa cells, then an intron comprised in the reporter sequence of pBB-intron is immediately removed by pre-mRNA splicing in HeLa cells. […] The amount of this reporter (−) DNA reflects the replication activity and replication amount of HBV. Therefore, when DNA is extracted from the cells in which the system for evaluating HBV replication activity and pCI-ΔHBc are introduced, the amount thereof is quantified with a primer set specific to the reporter (−) DNA, and then compared with the amount of the positive control, the effect of pCI-ΔHBc on the HBV replication can be evaluated.
DNA was extracted from HeLa cells after culture using DNeasy Mini (Qiagen N.V.). Then, quantitative PCR was performed using a primer set specific to the reporter (−) DNA after reverse transcription. For primers, a forward primer (Primer F) consisting of the base sequence shown in SEQ ID NO: 23, and a reverse primer (Primer R) consisting of the base sequence shown in SEQ ID NO: 24 were used. […] Therefore, it functions as a primer only when there is a reporter (−) DNA having the reporter sequence from which the intron has been removed, and the DNA fragment of 131 bases is amplified.
The basic procedures were in accordance with Example 1. As pCI-ΔHBc to be introduced into HeLa cells together with the system for evaluating HBV replication activity, only pCI-ΔHBc(α1-4b) was used. The introduction ratio of the respective expression vectors was set such that the ratio of pCI-HBc: pCI—HBV-Pol: pCI-HBx was 9:3:1, and the ratio of pBB-intron: pCI-HBc/pCI—HBV-Pol/pCI-HBx was 1:1. Then, only the system for evaluating HBV replication activity in which the ratio of pCI-ΔHBc(α1-4b): pBB-intron/pCI-HBc/pCI—HBV-Pol/pCI-HBx was adjusted to 1:26, 3:26, 9:26, or 26:26, was introduced as a positive control. In each sample, an empty vector (pCI) was used for adjustment so that the amount of the vector to be introduced is the same.

[4] = test system: full length HBc; assay: Western blotting under non-reducing conditions of HBc dimer and multimer formation in HeLa cells; conditions: PA-tagged ΔHBc coexpressed with full length HBc in HeLa cells, antibody #511; FIG. 12A
Method: Each of the expression vectors of the wild type full length HBc (HBc-WT), and mutant full length HBc (HBc-F23A and HBc-L42A) was introduced into HeLa cells, which were cultured for 24 hours. Then proteins were extracted with a WB lysis buffer (1% Triton, 25 mM Tris pH 7.4, 150 mM NaCl). After addition of CuSO4 (100 μM), the protein extract was incubated at room temperature for 20 min, and neutralized with 1 mM EDTA, to which α13-ME-free SDS-PAGE sample buffer was added. Then SDS-PAGE was performed using a 10 to 20% polyacrylamide gel (SuperSep™ Ace, FUJIFILM Wako Pure Chemical Corporation). After the electrophoresis, the proteins were transferred to a PVDF membrane using a semi-dry blotter, and Western blotting was performed using a mouse anti-human HBc monoclonal antibody (#511).
The basic procedures were in accordance with the method described in Example 4. pCI-ΔHBc(α1-4b)-PA alone, or pCI-ΔHBc(α1-4b)-PA and pCI-ΔHBc(α1-4b)-F23A-PA at a ratio of 1:1 were introduced into HeLa cells.

## CCOC(=O)C1=C(CN2CCOCC2)NC(c2nccs2)=NC1c1ccc(F)cc1Br (stereo not drawn) [GLS4]
[1]
  inhibitory effect on HBV replication by HBc-WT (efficiency of inhibition): inhibited HBV replication by HBc-WT in a concentration-dependent manner
[2]
  inhibitory effect on HBV replication by HBc-T33N (efficiency of inhibition): did not exhibit inhibitory effect on HBV replication by HBc-T33N

## α1-2b (MDIDPYKEFGASVELLSFLPSDFFPSIRDLLDTASALYREALESPEHCS)
[3]; HeLa cells
  inhibitory effect on HBV replication: inhibitory activity on HBV replication was lost

## α4ab (MSNLEDPASRELVVSYVNVNMGLKIRQLLWFHISCLTFG)
[3]; HeLa cells
  inhibitory effect on HBV replication: inhibitory activity on HBV replication was lost

B1: α2-4b (protein)
chain: MFLPSDFFPSIRDLLDTASALYREALESPEHCSPHHTALRQAILCWGELMNLATWVGSNLEDPASRELVVSYVNVNMGLKIRQLLWFHISCLTFG
[3]; HeLa cells
  inhibitory effect on HBV replication: inhibitory activity on HBV replication was lost

B2: α3-4b (protein)
chain: MSPEHCSPHHTALRQAILCWGELMNLATWVGSNLEDPASRELVVSYVNVNMGLKIRQLLWFHISCLTFG
[3]; HeLa cells
  inhibitory effect on HBV replication: inhibitory activity on HBV replication was lost

B3: ΔHBc(α1-4b)-F23A (protein)
chain: MDIDPYKEFGASVELLSFLPSDAFPSIRDLLDTASALYREALESPEHCSPHHTALRQAILCWGELMNLATWVGSNLEDPASRELVVSYVNVNMGLKIRQLLWFHISCLTFG
[4]
  effect on multimer formation of the full length HBc: inhibited the normal multimer formation of the full length HBc
[3]; HeLa cells, HBc-WT, ΔHBc/WT-HBc expression vector ratio 1/9, 3/9, 9/9, 26/9, FIG. 8, 11B, 14 left
  dose-dependent inhibition of HBV replication: inhibited HBV replication depending on its expression level
[3]; HeLa cells
  inhibitory effect on HBV replication: inhibitory effect on HBV replication activity was maintained
  inhibitory activity on HBV replication compared to wild type pCI-ΔHBc(α1-4b): more strongly inhibited than in the cells having introduced the wild type pCI-ΔHBc(α1-4b)
[3]; plasmids serially diluted with empty vector as in Example 2, FIG. 11B
  inhibitory activity on HBV replication compared to ΔHBc(α1-4b), dose series: stronger inhibitory activity on HBV replication than ΔHBc(α1-4b)

B4: ΔHBc(α1-4b)-L42A (protein)
chain: B3 chain with A23F, L42A
[3]; HeLa cells
  inhibitory effect on HBV replication: inhibitory effect on HBV replication activity was maintained
  inhibitory activity on HBV replication compared to wild type pCI-ΔHBc(α1-4b): reduced compared to the wild type pCI-ΔHBc(α1-4b)

B5: α1-4a (protein)
chain: MDIDPYKEFGASVELLSFLPSDFFPSIRDLLDTASALYREALESPEHCSPHHTALRQAILCWGELMNLATWVGSNLEDPASRELVVSYVNV
[3]; HeLa cells
  inhibitory effect on HBV replication: inhibitory activity on HBV replication was lost

B6: HR-RDBD (protein)
chain: MGRETVLEYLVSFGVWIRTPPAYRPPNAPILSTLPETTVVRRRGRSPRRRTPSPRRRRSQSPRRRRSQSRESQC
[3]; HeLa cells
  inhibitory effect on HBV replication: did not show the inhibitory activity on HBV replication
